From patent US20250320281A1

What was measured:
[1] = biological target: HIV-1 Env of isolate MGRM-C-007 (HIV-1); assay: cell-based or functional assay
[2] = biological target: HIV-1 Env of isolate MGRM-C-002 (HIV-1); assay: cell-based or functional assay
[3] = biological target: HIV-1 Env of pseudovirus isolate MGRM-G-014 (HIV-1); assay: cell-based or functional assay
[4] = biological target: HIV-1 JRCSF Env (pseudovirus) (HIV-1) (UniProt P20871); assay: cell-based or functional assay
[5] = biological target: HIV-1 92UG024 Env (pseudovirus) (HIV-1); assay: cell-based or functional assay
[6] = biological target: HIV-1 Env of pseudovirus isolate MGRM-G-016 (HIV-1); assay: cell-based or functional assay
[7] = biological target: HIV-1 Env of isolate MGRM-C-023 (HIV-1); assay: cell-based or functional assay
[8] = biological target: HIV-1 NL43 Env (pseudovirus) (HIV-1); assay: cell-based or functional assay
[9] = biological target: HIV-1 Env of isolate MGRM-C-010 (HIV-1); assay: cell-based or functional assay
[10] = biological target: HIV-1 Env of isolate MGRM-C-024 (HIV-1); assay: cell-based or functional assay
[11] = biological target: HIV-1 Env of isolate MGRM-C-013 (HIV-1); assay: cell-based or functional assay
[12] = biological target: HIV-1 Env of isolate MGRM-C-019 (HIV-1); assay: cell-based or functional assay
[13] = biological target: HIV-1 Env of isolate MGRM-C-004 (HIV-1); assay: cell-based or functional assay
[14] = biological target: HIV-1 CMU02 Env (pseudovirus) (HIV-1); assay: cell-based or functional assay
[15] = biological target: HIV-1 Env of isolate MGRM-C-022 (HIV-1); assay: cell-based or functional assay
[16] = biological target: HIV-1 Env of pseudovirus isolate MGRM-G-017 (HIV-1); assay: cell-based or functional assay
[17] = biological target: HIV-1 Env of isolate MGRM-C-005 (HIV-1); assay: cell-based or functional assay
[18] = biological target: HIV-1 93IN905 Env (pseudovirus) (HIV-1); assay: cell-based or functional assay
[19] = biological target: HIV-1 Env of isolate MGRM-C-006 (HIV-1); assay: cell-based or functional assay
[20] = biological target: HIV-1 92TH021 Env (pseudovirus) (HIV-1); assay: cell-based or functional assay
[21] = biological target: envelope of aMLV pseudovirus (negative control); assay: cell-based or functional assay
[22] = biological target: HIV-1 Env of isolate MGRM-C-012 (HIV-1); assay: cell-based or functional assay
[23] = biological target: HIV-1 Env of pseudovirus isolate MGRM-G-001 (HIV-1); assay: cell-based or functional assay
[24] = biological target: HIV-1 Env of isolate MGRM-C-001 (HIV-1); assay: cell-based or functional assay
[25] = biological target: HIV-1 Env of isolate MGRM-C-015 (HIV-1); assay: cell-based or functional assay
[26] = biological target: HIV-1 MGRM-A-010 Env (pseudovirus) (HIV-1); assay: cell-based or functional assay
[27] = biological target: HIV-1 Env of pseudovirus isolate MGRM-G-011 (HIV-1); assay: cell-based or functional assay
[28] = biological target: HIV-1 Env of pseudovirus isolate MGRM-G-009 (HIV-1); assay: cell-based or functional assay
[29] = biological target: HIV-1 APV6 Env (pseudovirus) (HIV-1); assay: cell-based or functional assay
[30] = biological target: HIV-1 Env of pseudovirus isolate MGRM-G-006 (HIV-1); assay: cell-based or functional assay
[31] = biological target: HIV-1 Env of pseudovirus isolate MGRM-G-027 (HIV-1); assay: cell-based or functional assay
[32] = biological target: HIV-1 94UG103 Env (pseudovirus) (HIV-1); assay: cell-based or functional assay
[33] = biological target: HIV-1 Env of pseudovirus isolate MGRM-G-015 (HIV-1); assay: cell-based or functional assay
[34] = biological target: HIV-1 Env of isolate MGRM-C-020 (HIV-1); assay: cell-based or functional assay
[35] = biological target: HIV-1 Env of isolate MGRM-C-014 (HIV-1); assay: cell-based or functional assay
[36] = biological target: HIV-1 Env of isolate MGRM-C-009 (HIV-1); assay: cell-based or functional assay
[37] = biological target: HIV-1 92RW020 Env (pseudovirus) (HIV-1); assay: cell-based or functional assay
[38] = biological target: HIV-1 Env of isolate MGRM-C-025 (HIV-1); assay: cell-based or functional assay
[39] = biological target: HIV-1 MGRM-C-026 Env (pseudovirus) (HIV-1); assay: cell-based or functional assay
[40] = biological target: HIV-1 92UG005 Env (pseudovirus) (HIV-1); assay: cell-based or functional assay
[41] = biological target: HIV-1 Env of pseudovirus isolate MGRM-G-013 (HIV-1); assay: cell-based or functional assay
[42] = biological target: HIV-1 MGRM-C-028 Env (pseudovirus) (HIV-1); assay: cell-based or functional assay
[43] = biological target: HIV-1 Env of pseudovirus isolate MGRM-G-019 (HIV-1); assay: cell-based or functional assay
[44] = biological target: HIV-1 Env of pseudovirus isolate MGRM-G-004 (HIV-1); assay: cell-based or functional assay
[45] = biological target: HIV-1 Env of isolate MGRM-C-008 (HIV-1); assay: cell-based or functional assay
[46] = biological target: HIV-1 Env of isolate MGRM-C-017 (HIV-1); assay: cell-based or functional assay
[47] = biological target: HIV-1 MGRM-C-027 Env (pseudovirus) (HIV-1); assay: cell-based or functional assay
[48] = biological target: HIV-1 MGRM-D-018 Env (pseudovirus) (HIV-1); assay: cell-based or functional assay
WT JR-FL gp120 (HIV-1) = assay: ELISA, antigen-coated wells

## 4858_P08 (PGT-123) (antibody)
[1]
  neutralization IC50: 0.547 µg/mL
[2]
  neutralization IC50: 0.01 µg/mL
[3]
  IC50 (µg/mL), pseudovirus neutralization: 0.005 µg/mL
[4]
  neutralization IC50 (pseudovirus): 0.0423 µg/mL
[5]
  neutralization IC50 (pseudovirus): > 10 µg/mL
[6]
  IC50 (µg/mL), pseudovirus neutralization: > 50 µg/mL
[7]
  neutralization IC50: 0.011 µg/mL
[8]
  neutralization IC50 (pseudovirus): > 10 µg/mL
[9]
  neutralization IC50: > 50 µg/mL
[10]
  neutralization IC50: 0.195 µg/mL
[11]
  neutralization IC50: 14.9 µg/mL
[12]
  neutralization IC50: > 50 µg/mL
[13]
  neutralization IC50: 0.009 µg/mL
[14]
  neutralization IC50 (pseudovirus): > 10 µg/mL
[15]
  neutralization IC50: 0.01 µg/mL
[16]
  IC50 (µg/mL), pseudovirus neutralization: 0.026 µg/mL
[17]
  neutralization IC50: 0.012 µg/mL
[18]
  neutralization IC50 (pseudovirus): 0.0071 µg/mL
[19]
  neutralization IC50: 0.021 µg/mL
[20]
  neutralization IC50 (pseudovirus): > 10 µg/mL
[21]
  IC50 (µg/mL), pseudovirus neutralization: > 50 µg/mL
[22]
  neutralization IC50: 0.606 µg/mL
[23]
  IC50 (µg/mL), pseudovirus neutralization: 0.009 µg/mL
[24]
  neutralization IC50: 42.4 µg/mL
[25]
  neutralization IC50: 13.1 µg/mL
[26]
  neutralization IC50 (pseudovirus): 0.492 µg/mL
[27]
  IC50 (µg/mL), pseudovirus neutralization: 14.9 µg/mL
[28]
  IC50 (µg/mL), pseudovirus neutralization: 33.5 µg/mL
[29]
  neutralization IC50 (pseudovirus): 0.0328 µg/mL
[30]
  IC50 (µg/mL), pseudovirus neutralization: > 50 µg/mL
[31]
  IC50 (µg/mL), pseudovirus neutralization: 0.182 µg/mL
[32]
  neutralization IC50 (pseudovirus): 0.846 µg/mL
[33]
  IC50 (µg/mL), pseudovirus neutralization: > 50 µg/mL
[34]
  neutralization IC50: > 50 µg/mL
[35]
  neutralization IC50: 1 µg/mL
[36]
  neutralization IC50: > 50 µg/mL
[37]
  neutralization IC50 (pseudovirus): 0.0038 µg/mL
[38]
  neutralization IC50: 13.3 µg/mL
[39]
  neutralization IC50 (pseudovirus): 0.0031 µg/mL
[40]
  neutralization IC50 (pseudovirus): 2.49 µg/mL
[41]
  IC50 (µg/mL), pseudovirus neutralization: 3.97 µg/mL
[42]
  neutralization IC50 (pseudovirus): 0.443 µg/mL
[43]
  IC50 (µg/mL), pseudovirus neutralization: 0.008 µg/mL
[44]
  IC50 (µg/mL), pseudovirus neutralization: 0.181 µg/mL
[45]
  neutralization IC50: 0.011 µg/mL
[46]
  neutralization IC50: 0.01 µg/mL
[47]
  neutralization IC50 (pseudovirus): 0.0169 µg/mL
[48]
  neutralization IC50 (pseudovirus): 0.0047 µg/mL
WT JR-FL gp120 (HIV-1)
  EC50: 0.2 µg/mL

## 4877_D15 (PGT-122) (antibody)
[1]
  neutralization IC50: 3.35 µg/mL
[2]
  neutralization IC50: 0.022 µg/mL
[3]
  IC50 (µg/mL), pseudovirus neutralization: 0.008 µg/mL
[4]
  neutralization IC50 (pseudovirus): 0.0727 µg/mL
[5]
  neutralization IC50 (pseudovirus): > 10 µg/mL
[6]
  IC50 (µg/mL), pseudovirus neutralization: > 50 µg/mL
[7]
  neutralization IC50: 0.027 µg/mL
[8]
  neutralization IC50 (pseudovirus): > 10 µg/mL
[9]
  neutralization IC50: > 50 µg/mL
[10]
  neutralization IC50: 0.102 µg/mL
[11]
  neutralization IC50: 32.6 µg/mL
[12]
  neutralization IC50: > 50 µg/mL
[13]
  neutralization IC50: 0.02 µg/mL
[14]
  neutralization IC50 (pseudovirus): > 10 µg/mL
[15]
  neutralization IC50: 0.012 µg/mL
[16]
  IC50 (µg/mL), pseudovirus neutralization: 0.032 µg/mL
[17]
  neutralization IC50: 0.027 µg/mL
[18]
  neutralization IC50 (pseudovirus): 0.0138 µg/mL
[19]
  neutralization IC50: 0.018 µg/mL
[20]
  neutralization IC50 (pseudovirus): > 10 µg/mL
[21]
  IC50 (µg/mL), pseudovirus neutralization: > 50 µg/mL
[22]
  neutralization IC50: 2 µg/mL
[23]
  IC50 (µg/mL), pseudovirus neutralization: 0.005 µg/mL
[24]
  neutralization IC50: 19.1 µg/mL
[25]
  neutralization IC50: > 50 µg/mL
[26]
  neutralization IC50 (pseudovirus): 1.68 µg/mL
[27]
  IC50 (µg/mL), pseudovirus neutralization: 31.3 µg/mL
[28]
  IC50 (µg/mL), pseudovirus neutralization: 0.514 µg/mL
[29]
  neutralization IC50 (pseudovirus): 0.0851 µg/mL
[30]
  IC50 (µg/mL), pseudovirus neutralization: > 50 µg/mL
[31]
  IC50 (µg/mL), pseudovirus neutralization: 0.606 µg/mL
[32]
  neutralization IC50 (pseudovirus): 1.46 µg/mL
[33]
  IC50 (µg/mL), pseudovirus neutralization: > 50 µg/mL
[34]
  neutralization IC50: 14 µg/mL
[35]
  neutralization IC50: > 50 µg/mL
[36]
  neutralization IC50: > 50 µg/mL
[37]
  neutralization IC50 (pseudovirus): 0.0072 µg/mL
[38]
  neutralization IC50: 8.69 µg/mL
[39]
  neutralization IC50 (pseudovirus): 0.0089 µg/mL
[40]
  neutralization IC50 (pseudovirus): > 10 µg/mL
[41]
  IC50 (µg/mL), pseudovirus neutralization: 3.45 µg/mL
[42]
  neutralization IC50 (pseudovirus): 2.06 µg/mL
[43]
  IC50 (µg/mL), pseudovirus neutralization: 0.016 µg/mL
[44]
  IC50 (µg/mL), pseudovirus neutralization: 2.15 µg/mL
[45]
  neutralization IC50: 0.028 µg/mL
[46]
  neutralization IC50: 0.015 µg/mL
[47]
  neutralization IC50 (pseudovirus): 0.0388 µg/mL
[48]
  neutralization IC50 (pseudovirus): 0.0115 µg/mL
WT JR-FL gp120 (HIV-1)
  EC50: 0.3 µg/mL
